US20040175377A1, “Agent and method for reducing intraocular pressure” (priority 2000, published 2004)

Tests used:
[1] = test system: differentiated human TM (HTM) cell cultures; assay: Differentiated HTM cell cultures incubated with recombinant protein; extracellular matrix and cell contacts by immunofluorescence, phase microscopy and western blot; type: cell-based; conditions: for disruption of cell contacts or matrix assembly: pentapeptides administered separately to HTM cell cultures
Protocol: (§1) Differentiated human TM (HTM) cell cultures were incubated with a recombinant Hep II domain protein for eighteen hours. The effect on the extracellular matrix and cell contacts were observed using immunofluorescence microcopy, phase microscopy and western blot. Differentiated HTM cultures look like endothelial cells and form cell to cell junctions and closely resemble TM cells in vivo. Differentiated HTM cells also secrete matrix proteins such as fibronectin, type IV collagen and laminin. Non-differentiated cells lack these qualities and are less suitable for in vitro analysis methods. Cells were grown as described in Polansky J R, Weinreb R, Alvarado J A. Studies on human trabecular cells propagated in vitro. Vis Res 1981;21 :155-60 and Polansky J R, Weinreb R N, Baxter J D, Alvarado J. Human trabecular cells. I. Establishment in tissue culture and growth characteristics. Invest Ophthalmol Vis Sci 1979;18:1043-9, both incorporated by reference in their entirety.
After incubation, the turnover of fibronectin fibrils, a good indicator of matrix formation, was studied. […] The Hep II protein was a GST protein. The GST portion was cleaved with thrombin as described by Bultmann, H., et al., Fibronectin Fibrilogenesis Involves the Heparin II Binding Domains of Fibronectin, J. Biol. Chem. 273:2601-2609 (1998).
To identify the active region of the Hep II domain, smaller fragments including either the Type III repeat 12, the Type III repeat 14, or the Type III repeats 13 and 14 were produced as recombinant GST proteins, as above.

[2] = test system: human trabecular meshwork organ culture (eye); assay: Human eye organ culture perfusion, paired control and test eyes, IOP
Protocol: While this effect on matrix formation was relatively slow, the Hep II domain acts quickly in intact eyes to increase outflow facility. In human eye culture studies using pairs of control and test eyes, as described by Johnson, D H and Tschumper, R C. (1987) Human Trabecular Meshwork Organ Culture. IVOS 28:945-953, incorporated by reference, a baseline IOP was determined, pumps were turned off and the Hep II domain was injected at 13.8 μM into the anterior chamber of one eye. The pumps were kept off for four hours to allow the Hep II domain to mix with the contents of the anterior chamber. After four hours, the treated eyes were perfused with buffer containing the Hep II domain at 13.8 μM for twenty-four hours. Untreated eyes were perfused with buffer. […] After twenty-four hours, the pumps were turned off and the perfusate in both eyes was replaced with fresh buffer without the protein.

[3] = test system: Schlemm's canal endothelium and extracellular matrix of the eye; assay: Light and electron microscopy of fixed treated and untreated organ-cultured eyes; set-up: species or system human; conditions: fixed eyes after perfusion
Description: The treated and untreated eyes were then fixed and prepared for both light and electron microscopy. […] Part of the inner side of the cannel was disrupted and small discontinuous cellular processes replaced a continuous cell layer found in a normal eye. […] These changes can account for the increased outflow in the presence of the Hep II domain since they would have created additional spaces or openings for fluid flow.

vinculin = assay: Tyrosine phosphorylation of vinculin after treatment; type: cell-based, human; conditions: after treatment of the eye with the Hep II domain
Protocol: as §1
Further, a number of morphological changes also indicate disrupted cell contacts. […] Vinculin is a major structural protein that maintain cell-cell and cell-adhesion contracts. Changes in its phosphorylation state indicate that the treatment has biochemically affected the molecules that maintain cell-cell and cell-adhesion contracts. […]

Molecule | disruption of cell contacts or matrix assembly [1] | level of fibronectin matrixes (turnover of fibronectin fibrils) ([1]; HTM cell cultures, 4.6 μM, eighteen hours incubation) | morphological changes indicating disrupted cell contacts ([1]; compared to untreated cultures) | morphological changes at higher peptide concentrations ([1]; higher peptide concentrations) | decrease in IOP ([2]; 13.8 μM injected into the anterior chamber, pumps off four hours, then perfusion at 13.8 μM for twenty-four hours, versus baseline) | pressure in the treated eye after replacement of perfusate with buffer without the protein ([2]; after twenty-four hours perfusion, absence of the Hep II domain) | treated organ-cultured eyes with lower IOP after treatment ([2]; plurality of assays, number of treated eyes) | electron microscopy, endothelium in Schlemm's canal [3] | electron microscopy, extracellular matrix in the juxtacanalicular region [3] | light microscopy, treated versus untreated eyes [3] | tyrosine phosphorylation of vinculin (vinculin)
IDAPS (listed as Homo sapiens) | neither disrupted cell contacts or matrix assembly |  |  |  |  |  |  |  |  |  | 
PRARI (listed as Homo sapiens) | neither disrupted cell contacts or matrix assembly |  |  |  |  |  |  |  |  |  | 
Hep II domain: recombinant 33 kilodalton Hep II domain of fibronectin containing type III repeats 12, 13 and 14 (SEQ ID NO:2) (protein, listed as Homo sapiens) IPAPTDLKFTQVTPTSLSAQWTPPNVQLTGYRVRVTPKEKTGPMKEINLAPDSSSVVVSGLMVATKYEVSVYALKDTLTSRPAQGVVTTLENVSPPRRARVTDATETTITISWRTKTETITGFQVDAVPANGQTPIQRTIKPDVRSYTITGLQPGTDYKIYLYTLNDNARSSPVVIDASTAIDAPSNLRFLATTPNSLLVSWQPPRARITGYIIKYEKPGSPPREVVPRPRPGVTEATITGLEPGTEYTIYVIALKNNQKSEPLIGRKKT |  | dramatic decrease | increase in the number of retraction fibers | retraction and rounding up of many cells | 32% | returned to the baseline level | six of seven | altered | altered and amorphous material appeared in the cribiform meshwork | not distinguishable | significant increase
